Tests used:
hENG(26-332)-hFc = biological target: T1, hENG(26-332)-hFc (human, UniProt P17813 26-332); experiment: SPR, captured hENG-hFc, soluble BMP10; '-' = Binding undetectable
T1 construct: HEK 293, purified; not shown: linker and human IgG1 Fc domain
T1 sequence: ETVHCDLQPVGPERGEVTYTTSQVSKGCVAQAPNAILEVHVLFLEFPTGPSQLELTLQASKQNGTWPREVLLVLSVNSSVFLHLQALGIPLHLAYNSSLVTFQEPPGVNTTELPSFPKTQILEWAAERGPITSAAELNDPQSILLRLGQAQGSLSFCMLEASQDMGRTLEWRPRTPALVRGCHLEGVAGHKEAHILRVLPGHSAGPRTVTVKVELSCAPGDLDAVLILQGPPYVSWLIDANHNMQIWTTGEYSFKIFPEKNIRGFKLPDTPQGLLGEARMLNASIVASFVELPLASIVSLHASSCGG
Protocol: (§1) SPR methodology was used to screen these hENG-hFc protein variants for high-affinity binding to human BMP9 and BMP10. In these experiments, captured hENG-hFc proteins were exposed to soluble BMP9 or BMP10 at 100 nM each.

hENG(133-346)-hFc [1] = biological target: T2, hENG(133-346)-hFc (human, UniProt P17813 133-346); experiment: as above
T2 construct: HEK 293, purified; not shown: linker and human IgG1 Fc domain
T2 sequence: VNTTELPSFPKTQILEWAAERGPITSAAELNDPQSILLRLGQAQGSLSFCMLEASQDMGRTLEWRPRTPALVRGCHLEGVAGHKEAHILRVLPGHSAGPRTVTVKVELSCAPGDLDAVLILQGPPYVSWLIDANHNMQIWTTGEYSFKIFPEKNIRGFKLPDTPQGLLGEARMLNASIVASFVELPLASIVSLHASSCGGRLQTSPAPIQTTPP
Protocol: as §1

hENG(458-581)-hFc = biological target: T3, hENG(458-581)-hFc (human, UniProt P17813 458-581); experiment: as above
T3 construct: Expressed in COS cells, not purified; not shown: linker and human IgG1 Fc domain
T3 sequence: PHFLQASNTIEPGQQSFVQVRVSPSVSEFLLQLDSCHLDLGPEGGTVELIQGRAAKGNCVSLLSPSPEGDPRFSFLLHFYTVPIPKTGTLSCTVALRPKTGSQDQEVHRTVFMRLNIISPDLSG
Protocol: as §1

hENG(458-586)-hFc [2] = biological target: T4, hENG(458-586)-hFc (human, UniProt P17813 458-586); experiment: as above
T4 construct: Expressed in COS cells, not purified; not shown: linker and human IgG1 Fc domain
T4 sequence: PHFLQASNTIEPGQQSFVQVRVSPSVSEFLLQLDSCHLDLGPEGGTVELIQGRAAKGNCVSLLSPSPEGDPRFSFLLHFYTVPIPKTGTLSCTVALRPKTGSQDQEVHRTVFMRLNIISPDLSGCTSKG
Protocol: as §1

hENG(61-346)-hFc = biological target: T5, hENG(61-346)-hFc (human, UniProt P17813 61-346); experiment: as above
T5 construct: HEK 293, purified; not shown: linker and human IgG1 Fc domain
T5 sequence: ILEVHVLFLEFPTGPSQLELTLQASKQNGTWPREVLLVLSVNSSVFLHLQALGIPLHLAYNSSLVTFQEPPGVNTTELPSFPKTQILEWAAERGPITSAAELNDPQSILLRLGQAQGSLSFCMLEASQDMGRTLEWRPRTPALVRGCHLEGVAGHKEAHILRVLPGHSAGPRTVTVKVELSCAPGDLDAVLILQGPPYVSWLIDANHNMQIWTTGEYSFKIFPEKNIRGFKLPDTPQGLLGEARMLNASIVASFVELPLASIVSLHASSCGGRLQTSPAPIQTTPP
Protocol: as §1

hENG(129-346)-hFc [3] = biological target: T6, hENG(129-346)-hFc (human, UniProt P17813 129-346); experiment: as above
T6 construct: HEK 293, purified; not shown: linker and human IgG1 Fc domain
T6 sequence: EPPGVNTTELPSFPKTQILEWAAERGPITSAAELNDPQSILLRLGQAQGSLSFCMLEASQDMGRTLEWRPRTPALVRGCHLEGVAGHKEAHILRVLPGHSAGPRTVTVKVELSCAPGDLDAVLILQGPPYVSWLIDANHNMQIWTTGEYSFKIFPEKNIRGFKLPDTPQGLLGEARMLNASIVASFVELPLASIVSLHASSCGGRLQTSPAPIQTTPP
Protocol: as §1

hENG(166-346)-hFc [4] = biological target: T7, hENG(166-346)-hFc (human, UniProt P17813 166-346); experiment: as above
T7 construct: HEK 293, purified; not shown: linker and human IgG1 Fc domain
T7 sequence: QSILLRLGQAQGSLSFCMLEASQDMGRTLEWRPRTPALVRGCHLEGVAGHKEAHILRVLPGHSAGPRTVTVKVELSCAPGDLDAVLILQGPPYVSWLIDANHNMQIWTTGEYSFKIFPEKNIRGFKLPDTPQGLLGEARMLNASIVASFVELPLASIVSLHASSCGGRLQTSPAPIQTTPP
Protocol: as §1

hENG(26-329)-hFc = biological target: T8, hENG(26-329)-hFc (human, UniProt P17813 26-329); experiment: as above
T8 construct: HEK 293, purified; not shown: linker and human IgG1 Fc domain
T8 sequence: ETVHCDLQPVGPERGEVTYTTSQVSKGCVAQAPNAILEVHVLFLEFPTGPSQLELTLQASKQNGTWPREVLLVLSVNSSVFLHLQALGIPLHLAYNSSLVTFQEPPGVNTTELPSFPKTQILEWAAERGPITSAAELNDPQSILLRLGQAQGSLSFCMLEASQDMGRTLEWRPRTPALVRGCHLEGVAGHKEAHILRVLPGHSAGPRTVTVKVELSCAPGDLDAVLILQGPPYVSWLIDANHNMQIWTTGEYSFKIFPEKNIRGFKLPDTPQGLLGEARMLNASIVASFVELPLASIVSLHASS
Protocol: as §1

hENG(133-346)-hFc [5] = biological target: T2, hENG(133-346)-hFc; experiment: SPR, captured hENG-hFc, soluble BMP9; '-' = Binding undetectable
Protocol: as §1

hENG(458-586)-hFc [6] = biological target: T4, hENG(458-586)-hFc; experiment: as above
Protocol: as §1

hENG(129-346)-hFc [7] = biological target: T6, hENG(129-346)-hFc; experiment: as above
Protocol: as §1

hENG(166-346)-hFc [8] = biological target: T7, hENG(166-346)-hFc; experiment: as above
Protocol: as §1

Measured: binding result

B1: BMP10 (ligand)
chain: NAKGNYCKRTPLYIDFKEIGWDSWIIAPPGYEAYECRGVCNYPLAEHLTPTKHAIIQALVHLKNSQKASKACCVPTKLEPISILYLDKGVVTYKFKYEGMAVSECGCR
notes: also called hBMP-10; hBMP10
not listed: hENG(133-346)-hFc [5] | hENG(458-586)-hFc [6] | hENG(129-346)-hFc [7] | hENG(166-346)-hFc [8]
no binding (tested: 100 nM): all other assays above

B2: BMP9 (ligand, human, UniProt Q9UK05 320-429, looked up)
chain: SAGAGSHCQKTSLRVNFEDIGWDSWIIAPKEYEAYECKGGCFFPLADDVTPTKHAIVQTLVHLKFPTKVGKACCVPTKLSPISVLYKDDMGVPTLKYHYEGMSVAECGCR
notes: also called hBMP-9; hBMP9
no binding (tested: 100 nM): hENG(133-346)-hFc [5] | hENG(458-586)-hFc [6] | hENG(129-346)-hFc [7] | hENG(166-346)-hFc [8]
